Source: publication PMC5036196, “Structural and histone binding ability characterization of the ARB2 domain of a histone deacetylase Hda1 from Saccharomyces cerevisiae” (Scientific Reports, 2016)
Changes are numbered by the printed parent chain.

B1: ARB2 domain of Hda1 (Hda1^457–698) (domain or fragment, Saccharomyces cerevisiae, UniProt P53973 457-698, looked up)
chain: LQKAIRQQQQHYLSDEFNFVTLPLVSMDLPDNTVLCTPNISESNTIIIVVHDTSDIWAKRNVISGTIDLSSSVIIDNSLDFIKWGLDRKYGIIDVNIPLTLFEPDNYSGMITSQEVLIYLWDNYIKYFPSVAKIAFIGIGDSYSGIVHLLGHRDTRAVTKTVINFLGDKQLKPLVPLVDETLSEWYFKNSLIFSNNSHQCWKENESRKPRKKFGRVLRCDTDGLNNIIEERFEEATDFILDS
notes: Hda1 (histone deacetylase), S. cerevisiae, C-terminal ARB2 domain, residues 457-698; Homodimer in the crystal (symmetry-related molecules) and by size-exclusion chromatography; A selenomethionine derivative was used for phasing only; also called Native-Hda1^457–698; wild-type ARB2 domain; source: E. coli BL21 (DE3), purified (Ni-NTA, HiTrap Q FF, Superdex 200)
B2: ARB2-M3 (residues Val481, Ser482, Met483 and Asp484 mutated to Ala) (domain or fragment, Saccharomyces cerevisiae, UniProt P53973 457-698, looked up)
chain: B1 chain with V25A, S26A, M27A, D28A
notes: Hda1, S. cerevisiae, ARB2 domain, residues 457-698, with four substitutions around the groove; source: E. coli BL21 (DE3), purified (Ni-NTA, HiTrap Q FF, Superdex 200)
B3: ARB2-M1 (residues Gln463, His467 and Asp471 mutated to Ala) (domain or fragment, Saccharomyces cerevisiae, UniProt P53973 457-698, looked up)
chain: B1 chain with Q7A, H11A, D15A
notes: Hda1, S. cerevisiae, ARB2 domain, residues 457-698, with three substitutions around the groove; source: E. coli BL21 (DE3), purified (Ni-NTA, HiTrap Q FF, Superdex 200)
B4: ARB2-M2 (residues Tyr468 and Glu472 mutated to Ala) (domain or fragment, Saccharomyces cerevisiae, UniProt P53973 457-698, looked up)
chain: B1 chain with Y12A, E16A
notes: Hda1, S. cerevisiae, ARB2 domain, residues 457-698, with two substitutions around the groove; source: E. coli BL21 (DE3), purified (Ni-NTA, HiTrap Q FF, Superdex 200)

Target: the molecule itself
Assay: SEC; Superdex 200 10/300 GL, 0.5 ml/min, 25 mM Tris-HCl pH 7.5, 200 mM NaCl; apparent molecular mass against standard proteins
Conditions: not given

Q: How did the “stoichiometry N” value turn out when B1 was run?
A: 2

target: yeast histone H3-H4 tetramer (Saccharomyces cerevisiae, UniProt P61830 1-136; P02309 1-103); assay: ITC; ITC200 at 20 °C; 0.5 mM ARB2 or mutant in the injector, 0.2 mM H2A/B or 0.25 mM H3/4 in the sample cell; 25 mM Tris-HCl pH 7.5, 200 mM NaCl; single-site fitting model; conditions: both partners purified

Q: How did the Kd turn out when B1 was run?
A: 3.24 ± 0.49 µM

Q: What about the dH of the same binder?
A: -33.9 kcal/mol

Q: What about the “stoichiometry N” value of the same binder?
A: 1.52

Q: With B2 as the binder, how does the Kd read?
A: 8.19 ± 0.72 µM

Q: And the dH?
A: -20.2 kcal/mol

Q: And the “stoichiometry N” value?
A: 0.9

Q: B3 was tested. Which Kd did it give?
A: 9.84 ± 1.48 µM

Q: What about the dH of the same binder?
A: -7.63 kcal/mol

Q: What about the “stoichiometry N” value of the same binder?
A: 0.78

Q: With B4 as the binder, how does the Kd read?
A: 6.93 ± 1.24 µM

Q: What about the dH of the same binder?
A: -24.1 kcal/mol

Q: What about the “stoichiometry N” value of the same binder?
A: 1.1
